Results taken from US20230285581A1 (published 2023).

T1: full length monkey MSR1 on HEK293.mfMSR1 cells (Macaca fascicularis, UniProt A0A2K5UWE2 1-451)
T1 construct: whole, on cells
T1 sequence: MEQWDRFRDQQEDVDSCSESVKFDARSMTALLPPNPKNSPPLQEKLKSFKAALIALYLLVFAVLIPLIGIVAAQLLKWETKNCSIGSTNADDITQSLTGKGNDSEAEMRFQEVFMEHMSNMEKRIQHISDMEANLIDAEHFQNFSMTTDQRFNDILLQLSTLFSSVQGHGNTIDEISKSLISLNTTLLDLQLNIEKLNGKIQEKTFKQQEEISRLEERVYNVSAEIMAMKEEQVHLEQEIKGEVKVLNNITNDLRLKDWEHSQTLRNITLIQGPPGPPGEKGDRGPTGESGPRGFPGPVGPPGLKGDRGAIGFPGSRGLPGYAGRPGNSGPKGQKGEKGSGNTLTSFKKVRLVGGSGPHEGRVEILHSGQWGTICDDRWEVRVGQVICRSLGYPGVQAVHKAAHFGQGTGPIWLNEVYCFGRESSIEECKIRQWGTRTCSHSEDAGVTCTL

T2: mouse MSR1 extracellular domain expressed with a N-terminal nonahistidine tag (mouse, UniProt P30204 79-458)
T2 construct: extracellular domain; Bought reagent; also called His9-mMSR1
T2 sequence: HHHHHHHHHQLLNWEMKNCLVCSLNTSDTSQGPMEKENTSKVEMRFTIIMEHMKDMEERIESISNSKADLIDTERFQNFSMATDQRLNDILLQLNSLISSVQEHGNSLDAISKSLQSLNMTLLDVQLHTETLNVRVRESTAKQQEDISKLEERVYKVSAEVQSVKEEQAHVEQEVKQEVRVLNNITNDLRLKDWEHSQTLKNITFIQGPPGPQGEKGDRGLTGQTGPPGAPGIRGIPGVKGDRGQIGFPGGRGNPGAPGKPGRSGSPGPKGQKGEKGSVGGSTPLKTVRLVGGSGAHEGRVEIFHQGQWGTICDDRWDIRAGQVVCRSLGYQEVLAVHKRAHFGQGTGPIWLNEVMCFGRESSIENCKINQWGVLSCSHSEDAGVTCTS


Legend:
[1] = target: T1, full length monkey MSR1 on …; experiment: ECL cell binding, HEK293.mfMSR1 cells
[2] = target: T2, mouse MSR1 extracellular domain …; experiment: BLI (Octet), 25C, mAb captured; no dissociation seen, kd fixed at 5.00E-05
Experimental: Binding affinities and kinetic constants of human anti-MSR1 antibodies for different MSR1 reagents were determined using a real time, label-free bio-layer interferometry assay on an OCTET® HTX biosensor platform (Pall FortéBio Corp., Menlo Park, Calif.). The experiment was performed at 25° C. in 10 mM HEPES, 150 mM NaCl, 3 mM EDTA, 0.05% v/v Surfactant Tween-20, and 1 mg/mL BSA, pH7.4 (HBS-EBT) buffer with the plate shaking at the speed of 1000 rpm. […] The anti-MSR1 monoclonal antibodies were captured by dipping either anti-human Fc (AHC) or anti-mouse Fc (AMC) Octet biosensors in wells containing 5 μg/mL or 10 μg/mL of anti-MSR1 monoclonal antibody for 45-90 seconds. […] The binding of different MSR1 reagents to the captured anti-MSR1 monoclonal antibody was measured for 4 minutes and the dissociation of monoclonal antibody bound MSR1 reagent was monitored for 8-10 minutes in HBS-EBT buffer.
The association rate (kₐ) and dissociation rate (kd) were determined by fitting the real-time binding sensorgrams to a 1:1 binding model with mass transport limitation using Scrubber 2.0c curve-fitting software. Binding dissociation equilibrium constant (KD) and dissociative half-life (t½) were calculated from the kinetic rates as:

ratio of 11 nM antibody binding signal (RLU) to isotype control [1] [ratio] | t½ [2] [h] | Binder
27 |  | H2aM21229N (antibody, mouse IgG2a, V domains shown, mouse IgG2a Fc (H2aM)) VH: EVQLVESGGGLVKPGGSLRLSCAASGFTFSRYSMNWVRQAPGKGLEWVSSISSSSSYIYYGDTVKGRFTISRDNAKKSLYLQMNSLRAEDTAVYYCVRDRGQLVLYFDYWGQGTLVTVSS VL: DIQMTQSPASLSTSIRDRVTITCRASLSISSFLNWFQQRPGKAPKLLIYVASNLQSGVPSRFSDSGSGTDFTLTISSLQPEDFATYYCQQNYSTPPITFGQGTRLEIK
13 |  | H1H27766P2-N297Q (antibody, human IgG1, V domains shown, human IgG1 Fc with N297Q; also called H1H27766P-N297Q) VH: EVQLVESGGGLVQPGGSLRLSCAASGFTFSSFAMSWVRQAPGKELEWVSSISGRGGSTYYADSVRGRFTISRDNSKITLYLQMNSLRAEDTAVYYCAKDIVFRYTSSAYWYFDLWGRGTLVTVSS VL: not shown
1 |  | H1xH29282P2 (antibody, V domains shown, the prefix H1xH is not explained for the anti-MSR1 antibodies) VH: EVQLVESGGGLVQPGGSLRLSCAASGFTFSTYAMSWVRQAPGKGLEWVSTISGRSDITYFADSVKGRFTVSRDNSKTTLYLQMNSLRAEDTAVYYCATDDDLPLDYWGQGTLVTVSS VL: not shown
 | ≥ 3.85 | H1H21234N-N297Q (antibody, human IgG1, V domains shown, human IgG1 Fc with N297Q) VH: QVQLQESGPGLVKPSETLSLTCTVTGGSISRNYWSWIRQPPGKGLEWIGYIYYSGSIDYNPSLKSRVTISVDTSKNQFSLKLSSMTAADTAVYYCARDRWNWKYGMDVWGQGTTVIVSS VL: EIVLTQSPGTLSLSPGERATLSCRASQTVRNNYLAWYHQKPGQAPRLLIYGASSRATGIPDRFSGSGSGTDFTLTISRLEPEDFTVYYCHQYGNSPWTFGQGTKMEIKR
 | ≥ 3.85 | H1H21234N (antibody, human IgG1, V domains shown, original human IgG1 Fc) VH: QVQLQESGPGLVKPSETLSLTCTVTGGSISRNYWSWIRQPPGKGLEWIGYIYYSGSIDYNPSLKSRVTISVDTSKNQFSLKLSSMTAADTAVYYCARDRWNWKYGMDVWGQGTTVIVSS VL: EIVLTQSPGTLSLSPGERATLSCRASQTVRNNYLAWYHQKPGQAPRLLIYGASSRATGIPDRFSGSGSGTDFTLTISRLEPEDFTVYYCHQYGNSPWTFGQGTKMEIKR
